According to the Human Domainome abundance scans (Beltran et al. 2025):
± gives the uncertainty stated by the source.

B1: Cytoplasmic polyadenylation element-binding protein 2, residues 513 to 575; numbered along this chain, Q7Z5Q1 (parent)
chain: KRVEVKPYVLDDQMCDECQGARCGGKFAPFFCANVTCLQYYCEFCWANIHSRAGREFHKPLVK

Variants of: B1
Experiment: abundance fitness (aPCA) (normalised: wild type 0, dead -1); higher = more abundant; growth selection in yeast, the domain comes from the species named
Conditions: Homo sapiens

Variant	abundance fitness
KRVEVKPYVLDDQMCDECQGARCGGKFAPFFCANVTCLQYYCEFCWANIHSRAGREFHKPLVR	-0.105 ± 0.092
KRVEVKPYVLDDQMCDECQGARCGGKFAPFFCANVTCLQYYCEFCWANIHSRAGREFHKPLVP	0.367 ± 0.3
KRVEVKPYVLPDQMCDECQGARCGGKFAPFFCANVTCLQYYCEFCWANIHSRAGREFHKPLVK	-0.183 ± 0.083
KRVEVKPYVLDDQMCDECQGANCGGKFAPFFCANVTCLQYYCEFCWANIHSRAGREFHKPLVK	-0.032 ± 0.14
KRVEVKPYVLDDQMCDECQGARCGGKFAPFFCANVTCLQYYQEFCWANIHSRAGREFHKPLVK	-1.21 ± 0.22
KRVEVKPYVLDDQMCDECQGARCGGKFAPFFCANVTCLQYYREFCWANIHSRAGREFHKPLVK	-1 ± 0.091
KRVEVKPYVLDDQMCDQCQGARCGGKFAPFFCANVTCLQYYCEFCWANIHSRAGREFHKPLVK	0.09 ± 0.059
KRVEVKPYVLDDQMCDECQGARCGGKFAPFFCANVTCLQYYCLFCWANIHSRAGREFHKPLVK	-0.395 ± 0.044
KRVEVKPYVLDDQMCDECQGARCGGKFAPFFCANVTCLQYYCEFCWANIISRAGREFHKPLVK	-0.992 ± 0.18
KRVEVKPYVLDDQMCDECQGARCGGKFAPFFCANVTCLQYYCEFCWANIQSRAGREFHKPLVK	-0.727 ± 0.094
KRVEVKPYVLDDQMCDECQGARCGGKFAPFFCAEVTCLQYYCEFCWANIHSRAGREFHKPLVK	0.043 ± 0.044
KRVEVKPYVLDDQMCDECQGARCGGKFAPFFCAPVTCLQYYCEFCWANIHSRAGREFHKPLVK	-0.878 ± 0.11
KRVEVKPYVLDDQMCDECQGARCEGKFAPFFCANVTCLQYYCEFCWANIHSRAGREFHKPLVK	0.018 ± 0.053
KRVEVKPYVLDDQMCDECQGARCQGKFAPFFCANVTCLQYYCEFCWANIHSRAGREFHKPLVK	0.066 ± 0.054
KRVEVKPYVLDDQMCDECQGARCGGKFSPFFCANVTCLQYYCEFCWANIHSRAGREFHKPLVK	-0.321 ± 0.046
KRVEVKPYVLDDQMCDECQGARCGGKFYPFFCANVTCLQYYCEFCWANIHSRAGREFHKPLVK	-0.985 ± 0.2
KRVEVKPYVLDDQMCDECQGARRGGKFAPFFCANVTCLQYYCEFCWANIHSRAGREFHKPLVK	-0.185 ± 0.035
KRVEVKPYVLDDQMCDECQGARCGGMFAPFFCANVTCLQYYCEFCWANIHSRAGREFHKPLVK	-0.1 ± 0.056
KRVEVKPYVLDDQMCDECQGARCGGSFAPFFCANVTCLQYYCEFCWANIHSRAGREFHKPLVK	-0.079 ± 0.047
KRVEVKPYVLDDQMCDECQMARCGGKFAPFFCANVTCLQYYCEFCWANIHSRAGREFHKPLVK	-0.756 ± 0.1
KRVEVKPYVLDDQMCDECQNARCGGKFAPFFCANVTCLQYYCEFCWANIHSRAGREFHKPLVK	-0.499 ± 0.092
KRVEVKPYVLDDQMCDECQGARCGGKFAPFFCANVTCLQYYCEFCWANIHSRAGRYFHKPLVK	-0.271 ± 0.091

Variant	abundance fitness
KRVEVKPYVLDDQMCDECQGARCGGKFAPFFCANVTCLQYYCEFCWANIHSRAGRDFHKPLVK	-0.035 ± 0.081
KRVEVKPYVLDDQMCDECQGARCGGKFAPFFCANVTCLQYYCEFCHANIHSRAGREFHKPLVK	-0.328 ± 0.059
KRVEVKPYVLDDQMCDECQGARCGGKFAPFFCANVTCLQYYCEFCWANIHSRAGREFHVPLVK	-0.2 ± 0.05
KRVEVKPYVLDDQMCDECQGARCGGKFAPFFCANVTCLQYYCEFCWANIHSRAGREFHEPLVK	0.168 ± 0.055
KRVEVKPYVLDDQMCDECQGARCGGKFAPFFCANVTCLQYYCEFCWANIHSRAVREFHKPLVK	-0.32 ± 0.039
KRVEVKGYVLDDQMCDECQGARCGGKFAPFFCANVTCLQYYCEFCWANIHSRAGREFHKPLVK	-0.141 ± 0.037
KRVEVKMYVLDDQMCDECQGARCGGKFAPFFCANVTCLQYYCEFCWANIHSRAGREFHKPLVK	-0.259 ± 0.064
KRVEVKPYVLDDQMCDECQGARCGGKFAPFFCANVTCLQYYCEFCWANIHSRAGRETHKPLVK	0.121 ± 0.061
KRVEVKPYVLDDQMCTECQGARCGGKFAPFFCANVTCLQYYCEFCWANIHSRAGREFHKPLVK	0.115 ± 0.043
KYVEVKPYVLDDQMCDECQGARCGGKFAPFFCANVTCLQYYCEFCWANIHSRAGREFHKPLVK	-0.513 ± 0.095
CRVEVKPYVLDDQMCDECQGARCGGKFAPFFCANVTCLQYYCEFCWANIHSRAGREFHKPLVK	-0.276 ± 0.076
KRVEVKPYVLDDQMCDECQGARCGGKFAPFFCANVTCLQYYCEFCWWNIHSRAGREFHKPLVK	-0.133 ± 0.065
KRVEVKPWVLDDQMCDECQGARCGGKFAPFFCANVTCLQYYCEFCWANIHSRAGREFHKPLVK	-0.091 ± 0.059
KRVEVKPKVLDDQMCDECQGARCGGKFAPFFCANVTCLQYYCEFCWANIHSRAGREFHKPLVK	0.121 ± 0.058
KRVEVKPYVLDDQMCDECQGARCGGKFAPFFCANVTCLQYYCEFCWANIHSRSGREFHKPLVK	0.053 ± 0.031
KRVEVKPYVLDDQMCDECQGARCGGKFAPFFCANVTCLQYYCEFCWANIHSRKGREFHKPLVK	0.142 ± 0.051
KRVEVKPYVLDDQMCDECQGARCGGKFAPFFCANVTCLQYDCEFCWANIHSRAGREFHKPLVK	-0.729 ± 0.1
KRVEVKPYVLDDQPCDECQGARCGGKFAPFFCANVTCLQYYCEFCWANIHSRAGREFHKPLVK	-0.007 ± 0.05
KRVEVKPYVLDDQMCDECQGARCGGKFAPFFCTNVTCLQYYCEFCWANIHSRAGREFHKPLVK	0.021 ± 0.062
KRVEVKPYVLDDQMCDECQGARCGGKFAPFFCQNVTCLQYYCEFCWANIHSRAGREFHKPLVK	0.099 ± 0.053
KRVEVKPYVLDDQMCDECQGARCGGKFAPFFCENVTCLQYYCEFCWANIHSRAGREFHKPLVK	0.077 ± 0.046
KRVEVKPYVLDDQMCDECQGARCGGKFAPFFCKNVTCLQYYCEFCWANIHSRAGREFHKPLVK	-0.147 ± 0.085

Variant	abundance fitness
KRVEVKPYVLDDQMCDECQGARCGGKFAPFFCANVTCLQYYCEFCWANIHSRAGREFHKLLVK	-0.517 ± 0.048
KRVEVKPYVLDDQMCDECQGARCGGKFAPFFCANVTCLQYYCEFCWANIHSRAGREFHKTLVK	-0.558 ± 0.1
KRVPVKPYVLDDQMCDECQGARCGGKFAPFFCANVTCLQYYCEFCWANIHSRAGREFHKPLVK	-0.145 ± 0.045
KRVLVKPYVLDDQMCDECQGARCGGKFAPFFCANVTCLQYYCEFCWANIHSRAGREFHKPLVK	-0.322 ± 0.039
KRVEVKPYVLDDQMCDECQGARCGGKFAPFFCANVTCLQYYCEFCWANPHSRAGREFHKPLVK	-0.43 ± 0.055
KRVEVKPYVLDDQMCDECYGARCGGKFAPFFCANVTCLQYYCEFCWANIHSRAGREFHKPLVK	-0.224 ± 0.094
KRVEVKPYVLDDQMCDECLGARCGGKFAPFFCANVTCLQYYCEFCWANIHSRAGREFHKPLVK	0.075 ± 0.034
KRVEVKPYVLDDLMCDECQGARCGGKFAPFFCANVTCLQYYCEFCWANIHSRAGREFHKPLVK	-0.291 ± 0.036
KRVEVKPYVLDDRMCDECQGARCGGKFAPFFCANVTCLQYYCEFCWANIHSRAGREFHKPLVK	0.003 ± 0.04
KRVEVKPYVLDDQMCDECQGARCGGKFAPFFCANVTCLQYYCEFCWANIHSRAGREFHKPGVK	0.076 ± 0.042
KRVEVKPYVLDDQMCDECQGARCGGKFAPFFCANVTCLQYYCEFCWANIHSAAGREFHKPLVK	0 ± 0.045
KRVEVKPYVLDDQMCDECQGARCGGKFAPFFCANVTCLQYYCEFCWANIHSMAGREFHKPLVK	0.064 ± 0.057
KRVEVKPYVLDDQMCDECQGARCGGKFAPFFCANVTCLQYYCEFCWANIHSVAGREFHKPLVK	0.102 ± 0.031
KRVEVKPYVLDDQMCDECQGARCGGKFAPFFCANVTCLQYYCEFCWANIHSFAGREFHKPLVK	-0.071 ± 0.084
KRVEVKPYVLDDQMCDECQGARCGGKFAPFFCANVTCLQYYCEECWANIHSRAGREFHKPLVK	0.033 ± 0.048
KRVEVKPYVLDDQMWDECQGARCGGKFAPFFCANVTCLQYYCEFCWANIHSRAGREFHKPLVK	-0.759 ± 0.11
KRVEVKPYVLDDQMCDECQGARCGGKFAPFFCANVTCLFYYCEFCWANIHSRAGREFHKPLVK	-0.472 ± 0.089
KRVEVKPYVLDDQMCDECQGARCGGKFAPFFCANVTCLVYYCEFCWANIHSRAGREFHKPLVK	-0.001 ± 0.044
KRVEVKPYVLDDQMCDECQGARCGGKFASFFCANVTCLQYYCEFCWANIHSRAGREFHKPLVK	0.009 ± 0.038
KRVEVKPYRLDDQMCDECQGARCGGKFAPFFCANVTCLQYYCEFCWANIHSRAGREFHKPLVK	-0.14 ± 0.04
KRVEVKPYILDDQMCDECQGARCGGKFAPFFCANVTCLQYYCEFCWANIHSRAGREFHKPLVK	-0.022 ± 0.042
KRVEVKPYQLDDQMCDECQGARCGGKFAPFFCANVTCLQYYCEFCWANIHSRAGREFHKPLVK	0.096 ± 0.057

Variant	abundance fitness
KRVEVKPYVLDDQMCDECQGARCGGKFAPFCCANVTCLQYYCEFCWANIHSRAGREFHKPLVK	-0.547 ± 0.082
KRVEVKPYVLDDQMCDECQGARCGGKFAPFWCANVTCLQYYCEFCWANIHSRAGREFHKPLVK	-0.04 ± 0.036
KRVEVKPYVLDDQMCDECQGARCGGKFAPFECANVTCLQYYCEFCWANIHSRAGREFHKPLVK	-0.291 ± 0.079
KRVEVKPYVLDDQMCDECQGARCGGKFAPFFCANVMCLQYYCEFCWANIHSRAGREFHKPLVK	-0.095 ± 0.062
KRVEVKPYVLDDQMCDECQGARCGGKFAPFFCANVLCLQYYCEFCWANIHSRAGREFHKPLVK	-0.121 ± 0.035
KRVEVKPYVLDDQMCDECQGARCGGKFAPFFCANVECLQYYCEFCWANIHSRAGREFHKPLVK	0.108 ± 0.037
KRVEVKPYVLDDQMCDECQGARCGGKFAPFFCANVGCLQYYCEFCWANIHSRAGREFHKPLVK	0.073 ± 0.036
KRVEVKPYVLDDQMCDECQGARCGGKFAPFFCANVTCLQYYCEFCWANIHPRAGREFHKPLVK	-0.118 ± 0.053
KRVEVKPYVLDDQMCDECQGARCGGKFAPFFCANVTCLQYYCEFCWANIHMRAGREFHKPLVK	0.029 ± 0.051
KRVEVKPYVLDAQMCDECQGARCGGKFAPFFCANVTCLQYYCEFCWANIHSRAGREFHKPLVK	-0.117 ± 0.061
KRVEVKPYVLDWQMCDECQGARCGGKFAPFFCANVTCLQYYCEFCWANIHSRAGREFHKPLVK	-0.225 ± 0.05
KRVEVKPYVLDDQMCDECQGARCGGKYAPFFCANVTCLQYYCEFCWANIHSRAGREFHKPLVK	-0.202 ± 0.095
KRVEVKPYVLDDQMCDECQGARCGGKVAPFFCANVTCLQYYCEFCWANIHSRAGREFHKPLVK	-0.035 ± 0.04
KRVEVKPYVLDDQMCDECQGARCGGKFAPFFCANYTCLQYYCEFCWANIHSRAGREFHKPLVK	-0.305 ± 0.14
KRVEVKPYVLDDQMCDECQGARCGGKFAPFFCANVTCLQYYCEFIWANIHSRAGREFHKPLVK	-1.1 ± 0.25
KRVEVKPYVLDDQMCDECQGARCGGKFAPFFCANVTCLQYYCEFQWANIHSRAGREFHKPLVK	-0.994 ± 0.14
KRVELKPYVLDDQMCDECQGARCGGKFAPFFCANVTCLQYYCEFCWANIHSRAGREFHKPLVK	-0.136 ± 0.039
KRVEVKPYVLDDQMCDECQGARCGGKFAPFFCANVTCLQYYCEFCWANIHSRAGREFKKPLVK	-0.384 ± 0.062
KRVEVKPYVLDDQMCDECQGARCGGKFAPFFCANVTCLQYYCEFCWANIHSRAGREFVKPLVK	-0.704 ± 0.062
